Laboratory results taken from paper PMC7221550, “Membrane Phospholipids and Polyphosphates as Cofactors and Binding Molecules of SERPINA12 (vaspin)” (Molecules, 2020).

Biological target: Recombinant human kallikrein 7 (KLK7) (human, UniProt P49862 30-253)
Test: cell-based or functional assay

Sequence of Recombinant human kallikrein 7 (KLK7) (P49862 30-253): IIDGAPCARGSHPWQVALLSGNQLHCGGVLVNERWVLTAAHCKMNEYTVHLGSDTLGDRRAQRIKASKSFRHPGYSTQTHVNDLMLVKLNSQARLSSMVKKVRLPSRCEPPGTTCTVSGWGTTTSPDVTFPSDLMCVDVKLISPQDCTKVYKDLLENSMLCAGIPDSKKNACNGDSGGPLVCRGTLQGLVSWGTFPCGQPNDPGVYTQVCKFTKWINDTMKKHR

B1: Recombinant human vaspin wild type (visceral adipose tissue derived serine protease inhibitor, SERPINA12) (natural protein)
chain: KPSFSPRNYKALSEVQGWKQRMAAKELARQNMDLGFKLLKKLAFYNPGRNIFLSPLSISTAFSMLCLGAQDSTLDEIKQGFNFRKMPEKDLHEGFHYIIHELTQKTQDLKLSIGNTLFIDQRLQPQRKFLEDAKNFYSAETILTNFQNLEMAQKQINDFISQKTHGKINNLIENIDPGTVMLLANYIFFRARWKHEFDPNVTKEEDFFLEKNSSVKVPMMFRSGIYQVGYDDKLSCTILEIPYQKNITAIFILPDEGKLKHLEKGLQVDTFSRWKTLLSRRVVDVSVPRLHMTGTFDLKKTLSYIGVSKIFEEHGDLTKIAPHRSLKVGEAVHKAELKMDERGTEGAAGTGAQTLPMETPLVVKIDKPYLLLIYSEKIPSVLFLGKIVNPIGK
  second-order rate constant of KLK7 inhibition by vaspin under pseudo-first-order conditions, x-fold over control, with polyP45 (polyP/serpin ratio of 10:1): 5 fold
  second-order rate constant of KLK7 inhibition by vaspin under pseudo-first-order conditions, x-fold over control, with unfractionated heparin (ligand/serpin ratio of 10): 5 fold
